From the supplement of paper PMC10724198 come the findings set out here.

± gives the standard deviation of the averaged measurements.

The subject of series [1] is Saccharomyces cerevisiae. Nature of the series: protein stability index of tFT-peptide fusion (C-terminal peptide) (PSI (0-1 scale)); higher = more stable (slower turnover). The conditions noted are these: genetic background: wild type; temperature: 30 C.
The subject of series [2] is Saccharomyces cerevisiae. Described as above. Here is the method: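 MPS profiling in S. cerevisiae of the tFT-X12 degron library: putative degron peptides plus stable controls, 12 aa, fused to the C-terminus of a sfGFP-mCherry timer. Cells are FACS-sorted into 8 mCherry/sfGFP bins and deep-sequenced. PSI runs from 0 (unstable) to 1 (stable). Backgrounds are wild type, das1Δ and doa10Δ at 30 °C, and wild type, das1Δ, cdc34-1 and cdc53-1 at 37 °C; 2-3 technical replicates each.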

The mark [3] stands for this setting: genetic background: cdc34-1, temperature: 37 C.
The mark [4] stands for this setting: genetic background: cdc53-1, temperature: 37 C.
Setting [5] is: genetic background: das1 deletion, temperature: 30 C.
[6] abbreviates: genetic background: das1 deletion, temperature: 37 C.
The mark [7] stands for this setting: genetic background: doa10 deletion, temperature: 30 C.
The mark [8] stands for this setting: genetic background: wild type, temperature: 30 C.
[9] abbreviates: genetic background: wild type, temperature: 37 C.
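Also: PSI is a weighted mean of sequencing reads over stability bins, variants kept only with over 10 reads, mCherry proximal and sfGFP distal, peptide attached via GGGS linker.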

As to YFNGLLPLVLVF, the protein stability index in the series on Saccharomyces cerevisiae [1] was determined as 0.0927 ± 0.049; in the series on Saccharomyces cerevisiae [2] (setting [3]), 0.0299 ± 0.0068; with Saccharomyces cerevisiae [2] (setting [4]), 0.0434 ± 0.004; with Saccharomyces cerevisiae [2] (setting [5]) it was 0.074 ± 0.01; with Saccharomyces cerevisiae [2] (setting [6]), 0.0623 ± 0.018; with Saccharomyces cerevisiae [2] (setting [7]) it was 0.0659 ± 0.018. Moreover, the protein stability index worked out at 0.0601 ± 0.0082 with Saccharomyces cerevisiae [2] (setting [8]) and 0.0517 ± 0.028 in the series with Saccharomyces cerevisiae [2] (setting [9]).

For the sequence YHFSLFFPLSLP, the protein stability index in the series with Saccharomyces cerevisiae [1] amounted to 0.482 ± 0.0063; with Saccharomyces cerevisiae [2] (setting [3]), 0.685 ± 0.022; in the series with Saccharomyces cerevisiae [2] (setting [4]) it was 0.73 ± 0.028; with Saccharomyces cerevisiae [2] (setting [5]) it was 0.607 ± 0.015; in the series on Saccharomyces cerevisiae [2] (setting [6]), 0.711 ± 0.0088; in the series with Saccharomyces cerevisiae [2] (setting [7]), 0.378 ± 0.0088. In addition, the protein stability index in the series with Saccharomyces cerevisiae [2] (setting [8]) was found to be 0.383 ± 0.017; in the series on Saccharomyces cerevisiae [2] (setting [9]), 0.568 ± 0.032.

Regarding YLAGPLARLRKF, the protein stability index in the series on Saccharomyces cerevisiae [1] came out at 0.751 ± 0.037; with Saccharomyces cerevisiae [2] (setting [3]) it was 0.68 ± 0.046; with Saccharomyces cerevisiae [2] (setting [4]), 0.7579 ± 0.0021; in the series with Saccharomyces cerevisiae [2] (setting [5]), 0.752 ± 0.027; in the series with Saccharomyces cerevisiae [2] (setting [6]), 0.738 ± 0.0093; in the series on Saccharomyces cerevisiae [2] (setting [7]), 0.716 ± 0.037. In addition, the protein stability index in the series with Saccharomyces cerevisiae [2] (setting [8]) was 0.749 ± 0.041; in the series on Saccharomyces cerevisiae [2] (setting [9]), 0.735 ± 0.013.

Consider YLDRFIFIYNIF, for which the protein stability index in the series with Saccharomyces cerevisiae [1] turned out to be 0.26 ± 0.025; with Saccharomyces cerevisiae [2] (setting [3]), 0.603 ± 0.034; in the series with Saccharomyces cerevisiae [2] (setting [4]), 0.6848 ± 0.0062; with Saccharomyces cerevisiae [2] (setting [5]), 0.599 ± 0.048; with Saccharomyces cerevisiae [2] (setting [6]), 0.707 ± 0.031; in the series on Saccharomyces cerevisiae [2] (setting [7]), 0.189 ± 0.0069. The protein stability index came to 0.202 ± 0.017 with Saccharomyces cerevisiae [2] (setting [8]) and 0.367 ± 0.023 with Saccharomyces cerevisiae [2] (setting [9]).

Take YLGLSAVAILWM: the protein stability index in the series with Saccharomyces cerevisiae [1] amounted to 0.4784 ± 0.0037; in the series with Saccharomyces cerevisiae [2] (setting [3]) it was 0.538 ± 0.041; with Saccharomyces cerevisiae [2] (setting [4]) it was 0.533 ± 0.02; in the series with Saccharomyces cerevisiae [2] (setting [5]) it was 0.414 ± 0.029; in the series on Saccharomyces cerevisiae [2] (setting [6]) it was 0.563 ± 0.014; in the series on Saccharomyces cerevisiae [2] (setting [7]) it was 0.381 ± 0.011. Further, the values for the protein stability index with Saccharomyces cerevisiae [2] (setting [8]) and in the series on Saccharomyces cerevisiae [2] (setting [9]) were 0.412 ± 0.018 and 0.529 ± 0.011, respectively.

Take YLVFSLCSYRFL: the protein stability index in the series on Saccharomyces cerevisiae [1] stood at 0.457 ± 0.033; in the series on Saccharomyces cerevisiae [2] (setting [3]), 0.596 ± 0.012; in the series on Saccharomyces cerevisiae [2] (setting [4]) it was 0.677 ± 0.022; in the series on Saccharomyces cerevisiae [2] (setting [5]), 0.511 ± 0.019; in the series with Saccharomyces cerevisiae [2] (setting [6]), 0.653 ± 0.011; in the series on Saccharomyces cerevisiae [2] (setting [7]), 0.36 ± 0.011. The protein stability index in the series on Saccharomyces cerevisiae [2] (setting [8]) was 0.374 ± 0.029; with Saccharomyces cerevisiae [2] (setting [9]), 0.549 ± 0.016.

Consider YNRKQEAAQKAN, for which the protein stability index with Saccharomyces cerevisiae [1] was 0.486 ± 0.14; in the series on Saccharomyces cerevisiae [2] (setting [3]) it was 0.671 ± 0.02; in the series with Saccharomyces cerevisiae [2] (setting [4]), 0.735 ± 0.029; in the series with Saccharomyces cerevisiae [2] (setting [5]), 0.617 ± 0.0072; in the series with Saccharomyces cerevisiae [2] (setting [6]), 0.71085 ± 0.00017; in the series with Saccharomyces cerevisiae [2] (setting [7]) it was 0.363 ± 0.025. The figures for the protein stability index in the series with Saccharomyces cerevisiae [2] (setting [8]) and in the series with Saccharomyces cerevisiae [2] (setting [9]) were 0.396 ± 0.018 and 0.606 ± 0.011, respectively.

Take YNTRLCTFSCML: the protein stability index in the series with Saccharomyces cerevisiae [1] is 0.755 ± 0.0089; in the series with Saccharomyces cerevisiae [2] (setting [3]) it was 0.772 ± 0.013; in the series with Saccharomyces cerevisiae [2] (setting [4]), 0.8079 ± 0.007; with Saccharomyces cerevisiae [2] (setting [5]) it was 0.668 ± 0.033; in the series on Saccharomyces cerevisiae [2] (setting [6]) it was 0.7881 ± 0.0015; with Saccharomyces cerevisiae [2] (setting [7]) it was 0.657 ± 0.025. For the same sequence, the figures for the protein stability index in the series on Saccharomyces cerevisiae [2] (setting [8]) and in the series on Saccharomyces cerevisiae [2] (setting [9]) were 0.698 ± 0.021 and 0.772 ± 0.011, respectively.

On to YPCRLFVRSLLA, for which the protein stability index in the series on Saccharomyces cerevisiae [1] was found to be 0.32 ± 0.051; with Saccharomyces cerevisiae [2] (setting [3]), 0.442 ± 0.05; in the series with Saccharomyces cerevisiae [2] (setting [4]), 0.436 ± 0.031; in the series with Saccharomyces cerevisiae [2] (setting [5]), 0.369 ± 0.023; with Saccharomyces cerevisiae [2] (setting [6]), 0.498 ± 0.0098; in the series on Saccharomyces cerevisiae [2] (setting [7]), 0.205 ± 0.0068. Further, the protein stability index in the series on Saccharomyces cerevisiae [2] (setting [8]) was found to be 0.235 ± 0.022; in the series with Saccharomyces cerevisiae [2] (setting [9]), 0.375 ± 0.019.

For the sequence YRGFFIGKLMLV, the protein stability index in the series with Saccharomyces cerevisiae [1] was found to be 0.201 ± 0.013; in the series with Saccharomyces cerevisiae [2] (setting [3]), 0.488 ± 0.04; in the series with Saccharomyces cerevisiae [2] (setting [4]), 0.548 ± 0.03; in the series with Saccharomyces cerevisiae [2] (setting [5]), 0.482 ± 0.035; with Saccharomyces cerevisiae [2] (setting [6]) it was 0.63 ± 0.013; with Saccharomyces cerevisiae [2] (setting [7]) it was 0.112 ± 0.017. Also, the protein stability index in the series on Saccharomyces cerevisiae [2] (setting [8]) stood at 0.113 ± 0.018; with Saccharomyces cerevisiae [2] (setting [9]), 0.216 ± 0.081.

Turning to YRKKIKNIWLRW, the protein stability index with Saccharomyces cerevisiae [1] was 0.473 ± 0.041; in the series on Saccharomyces cerevisiae [2] (setting [3]), 0.442 ± 0.017; in the series on Saccharomyces cerevisiae [2] (setting [4]), 0.428 ± 0.026; in the series with Saccharomyces cerevisiae [2] (setting [5]), 0.475 ± 0.033; in the series with Saccharomyces cerevisiae [2] (setting [6]) it was 0.6017 ± 0.0025; with Saccharomyces cerevisiae [2] (setting [7]), 0.444 ± 0.058. Also, the protein stability index with Saccharomyces cerevisiae [2] (setting [8]) amounted to 0.322 ± 0.033; in the series on Saccharomyces cerevisiae [2] (setting [9]), 0.535 ± 0.0073.

Regarding YRLTIVWFFLAL, the protein stability index with Saccharomyces cerevisiae [1] was found to be 0.427 ± 0.055; in the series on Saccharomyces cerevisiae [2] (setting [3]), 0.434 ± 0.028; with Saccharomyces cerevisiae [2] (setting [4]), 0.519 ± 0.006; with Saccharomyces cerevisiae [2] (setting [5]), 0.354 ± 0.026; in the series with Saccharomyces cerevisiae [2] (setting [6]), 0.609 ± 0.034; in the series with Saccharomyces cerevisiae [2] (setting [7]), 0.3504 ± 0.002. Further, the protein stability index in the series with Saccharomyces cerevisiae [2] (setting [8]) was 0.349 ± 0.012; in the series on Saccharomyces cerevisiae [2] (setting [9]), 0.513 ± 0.011.

Turning to YSVERCLFVSVA, the protein stability index in the series on Saccharomyces cerevisiae [1] is 0.414 ± 0.034; in the series with Saccharomyces cerevisiae [2] (setting [3]) it was 0.422 ± 0.025; with Saccharomyces cerevisiae [2] (setting [4]), 0.4443 ± 0.0013; in the series with Saccharomyces cerevisiae [2] (setting [5]), 0.352 ± 0.034; in the series with Saccharomyces cerevisiae [2] (setting [6]), 0.502 ± 0.013; in the series on Saccharomyces cerevisiae [2] (setting [7]), 0.287 ± 0.02. The protein stability index was 0.314 ± 0.01 in the series with Saccharomyces cerevisiae [2] (setting [8]) and 0.443 ± 0.018 in the series with Saccharomyces cerevisiae [2] (setting [9]).

Regarding YVASSWRHCFII, the protein stability index in the series with Saccharomyces cerevisiae [1] amounted to 0.221 ± 0.039; in the series with Saccharomyces cerevisiae [2] (setting [3]), 0.5016 ± 0.0016; with Saccharomyces cerevisiae [2] (setting [4]), 0.657 ± 0.039; in the series with Saccharomyces cerevisiae [2] (setting [5]) it was 0.658 ± 0.022; in the series on Saccharomyces cerevisiae [2] (setting [6]) it was 0.724 ± 0.039; in the series with Saccharomyces cerevisiae [2] (setting [7]), 0.145 ± 0.012. In addition, the protein stability index in the series with Saccharomyces cerevisiae [2] (setting [8]) worked out at 0.152 ± 0.014; in the series on Saccharomyces cerevisiae [2] (setting [9]) it was 0.269 ± 0.023.

For the sequence YVLLSRVSVFSA, the protein stability index in the series on Saccharomyces cerevisiae [1] stood at 0.421 ± 0.035; with Saccharomyces cerevisiae [2] (setting [3]), 0.446 ± 0.0078; with Saccharomyces cerevisiae [2] (setting [4]) it was 0.464 ± 0.031; in the series on Saccharomyces cerevisiae [2] (setting [5]), 0.378 ± 0.019; with Saccharomyces cerevisiae [2] (setting [6]), 0.533 ± 0.0079; with Saccharomyces cerevisiae [2] (setting [7]) it was 0.297 ± 0.011. Moreover, the values for the protein stability index with Saccharomyces cerevisiae [2] (setting [8]) and in the series with Saccharomyces cerevisiae [2] (setting [9]) were 0.329 ± 0.037 and 0.501 ± 0.028, respectively.
